Source: patent publication US20080182978A1, “ANTI-NGF ANTIBODIES AND METHODS USING SAME” (RINAT NEUROSCIENCE CORP, priority 2002, published 2008)

B1: Y106R: 8L2-6D5 template with CDR H3 mutation Y106R (antibody, V domains shown)
VH: QVQLQESGPGLVKPSETLSLTCTVSGFSLIGYDINWIRQPPGKGLEWIGMIWGDGTTDYNSALKSRVTISKDTSKNQFSLKLSSVTAADTAVYYCARGGYYYGTSRYFDYWGQGTLVTVS
VL: DIQMTQSPSSLSASVGDRVTITCRASQDISNHLNWYQQKPGKAPKLLIYYISRFHSGVPSRFSGSGSGTDFTFTISSLQPEDIATYYCQQSKTLPYTFGQGTKLEIKRT
B2: Y106T: 8L2-6D5 template with CDR H3 mutation Y106T (antibody, V domains shown)
VH: QVQLQESGPGLVKPSETLSLTCTVSGFSLIGYDINWIRQPPGKGLEWIGMIWGDGTTDYNSALKSRVTISKDTSKNQFSLKLSSVTAADTAVYYCARGGYYYGTSTYFDYWGQGTLVTVS
VL: DIQMTQSPSSLSASVGDRVTITCRASQDISNHLNWYQQKPGKAPKLLIYYISRFHSGVPSRFSGSGSGTDFTFTISSLQPEDIATYYCQQSKTLPYTFGQGTKLEIKRT
B3: Y106M: 8L2-6D5 template with CDR H3 mutation Y106M (antibody, V domains shown)
VH: QVQLQESGPGLVKPSETLSLTCTVSGFSLIGYDINWIRQPPGKGLEWIGMIWGDGTTDYNSALKSRVTISKDTSKNQFSLKLSSVTAADTAVYYCARGGYYYGTSMYFDYWGQGTLVTVS
VL: DIQMTQSPSSLSASVGDRVTITCRASQDISNHLNWYQQKPGKAPKLLIYYISRFHSGVPSRFSGSGSGTDFTFTISSLQPEDIATYYCQQSKTLPYTFGQGTKLEIKRT
B4: Y107F: 8L2-6D5 template with CDR H3 mutation Y107F (antibody, V domains shown)
VH: QVQLQESGPGLVKPSETLSLTCTVSGFSLIGYDINWIRQPPGKGLEWIGMIWGDGTTDYNSALKSRVTISKDTSKNQFSLKLSSVTAADTAVYYCARGGYYYGTSYFFDYWGQGTLVTVS
VL: DIQMTQSPSSLSASVGDRVTITCRASQDISNHLNWYQQKPGKAPKLLIYYISRFHSGVPSRFSGSGSGTDFTFTISSLQPEDIATYYCQQSKTLPYTFGQGTKLEIKRT
B5: F108W: 8L2-6D5 template with CDR H3 mutation F108W (antibody, V domains shown)
VH: QVQLQESGPGLVKPSETLSLTCTVSGFSLIGYDINWIRQPPGKGLEWIGMIWGDGTTDYNSALKSRVTISKDTSKNQFSLKLSSVTAADTAVYYCARGGYYYGTSYYWDYWGQGTLVTVS
VL: DIQMTQSPSSLSASVGDRVTITCRASQDISNHLNWYQQKPGKAPKLLIYYISRFHSGVPSRFSGSGSGTDFTFTISSLQPEDIATYYCQQSKTLPYTFGQGTKLEIKRT
B6: D109N: 8L2-6D5 template with CDR H3 mutation D109N (antibody, V domains shown)
VH: QVQLQESGPGLVKPSETLSLTCTVSGFSLIGYDINWIRQPPGKGLEWIGMIWGDGTTDYNSALKSRVTISKDTSKNQFSLKLSSVTAADTAVYYCARGGYYYGTSYYFNYWGQGTLVTVS
VL: DIQMTQSPSSLSASVGDRVTITCRASQDISNHLNWYQQKPGKAPKLLIYYISRFHSGVPSRFSGSGSGTDFTFTISSLQPEDIATYYCQQSKTLPYTFGQGTKLEIKRT
B7: D109G: 8L2-6D5 template with CDR H3 mutation D109G (antibody, V domains shown)
VH: QVQLQESGPGLVKPSETLSLTCTVSGFSLIGYDINWIRQPPGKGLEWIGMIWGDGTTDYNSALKSRVTISKDTSKNQFSLKLSSVTAADTAVYYCARGGYYYGTSYYFGYWGQGTLVTVS
VL: DIQMTQSPSSLSASVGDRVTITCRASQDISNHLNWYQQKPGKAPKLLIYYISRFHSGVPSRFSGSGSGTDFTFTISSLQPEDIATYYCQQSKTLPYTFGQGTKLEIKRT
B8: Y110K: 8L2-6D5 template with CDR H3 mutation Y110K (antibody, V domains shown)
VH: QVQLQESGPGLVKPSETLSLTCTVSGFSLIGYDINWIRQPPGKGLEWIGMIWGDGTTDYNSALKSRVTISKDTSKNQFSLKLSSVTAADTAVYYCARGGYYYGTSYYFDKWGQGTLVTVS
VL: DIQMTQSPSSLSASVGDRVTITCRASQDISNHLNWYQQKPGKAPKLLIYYISRFHSGVPSRFSGSGSGTDFTFTISSLQPEDIATYYCQQSKTLPYTFGQGTKLEIKRT
B9: Y110S: 8L2-6D5 template with CDR H3 mutation Y110S (antibody, V domains shown)
VH: QVQLQESGPGLVKPSETLSLTCTVSGFSLIGYDINWIRQPPGKGLEWIGMIWGDGTTDYNSALKSRVTISKDTSKNQFSLKLSSVTAADTAVYYCARGGYYYGTSYYFDSWGQGTLVTVS
VL: DIQMTQSPSSLSASVGDRVTITCRASQDISNHLNWYQQKPGKAPKLLIYYISRFHSGVPSRFSGSGSGTDFTFTISSLQPEDIATYYCQQSKTLPYTFGQGTKLEIKRT
B10: Y110R: 8L2-6D5 template with CDR H3 mutation Y110R (antibody, V domains shown)
VH: QVQLQESGPGLVKPSETLSLTCTVSGFSLIGYDINWIRQPPGKGLEWIGMIWGDGTTDYNSALKSRVTISKDTSKNQFSLKLSSVTAADTAVYYCARGGYYYGTSYYFDRWGQGTLVTVS
VL: DIQMTQSPSSLSASVGDRVTITCRASQDISNHLNWYQQKPGKAPKLLIYYISRFHSGVPSRFSGSGSGTDFTFTISSLQPEDIATYYCQQSKTLPYTFGQGTKLEIKRT
B11: Y110T: 8L2-6D5 template with CDR H3 mutation Y110T (antibody, V domains shown)
VH: QVQLQESGPGLVKPSETLSLTCTVSGFSLIGYDINWIRQPPGKGLEWIGMIWGDGTTDYNSALKSRVTISKDTSKNQFSLKLSSVTAADTAVYYCARGGYYYGTSYYFDTWGQGTLVTVS
VL: DIQMTQSPSSLSASVGDRVTITCRASQDISNHLNWYQQKPGKAPKLLIYYISRFHSGVPSRFSGSGSGTDFTFTISSLQPEDIATYYCQQSKTLPYTFGQGTKLEIKRT
B12: Y96R: 8L2-6D5 template with CDR L3 mutation Y96R (antibody, V domains shown)
VH: QVQLQESGPGLVKPSETLSLTCTVSGFSLIGYDINWIRQPPGKGLEWIGMIWGDGTTDYNSALKSRVTISKDTSKNQFSLKLSSVTAADTAVYYCARGGYYYGTSYYFDYWGQGTLVTVS
VL: DIQMTQSPSSLSASVGDRVTITCRASQDISNHLNWYQQKPGKAPKLLIYYISRFHSGVPSRFSGSGSGTDFTFTISSLQPEDIATYYCQQSKTLPRTFGQGTKLEIKRT

The molecules below were run against T1, human NGF (Homo sapiens, UniProt P01138) (assay: BIAcore screening assay of Fab library clones (koff)). Settings: Table 6: single CDR H3 or L3 mutation in 8L2-6D5 template.
Type: binding
Method: Small scale expression in 96 wells plates was optimized for screening Fab libraries. Starting from E. coli transformed with a Fab library, colonies were picked to inoculate both a master plate (agar LB+Ampicillin (50 μg/ml)+2% Glucose) and a working plate (2 ml/well, 96 well/plate containing 1.5 mL of LB+Ampicillin (50 μg/ml)+2% Glucose). Both plates were grown at 30° C. for 8-12 hours. The master plate was stored at 4° C. and the cells from the working plate were pelleted at 5000 rpm and resuspended with 1 mL of LB+Ampicillin (50 μg/ml)+1 mM IPTG to induce expression of Fabs. Cells were harvested by centrifugation after 5 h expression time at 30° C., then resuspended in 500 μL of buffer HBS-EP ([…] buffer pH 7.4, 150 mM NaCl, 0.005% P20, 3 mM EDTA). Lysis of HBS-EP resuspended cells was attained by one cycle of freezing (−80° C.) then thawing at 37° C. Cell lysates were centrifuged at 5000 rpm for 30 min to separate cell debris from supernatants containing Fabs. The supernatants were then injected into the BIAcore plasmon resonance apparatus to obtain affinity information for each Fab. Clones expressing Fabs were rescued from the master plate to sequence the DNA and for large scale Fab production and detailed characterization as described below.
Affinities of anti-NGF Fabs and monoclonal antibodies were determined using the BIAcore300™ surface plasmon resonance (SPR) system (BIAcore, INC, Piscaway N.J.). CM5 chips were activated with N-ethyl-N′-(3-dimethylaminopropyl)-carbodimide hydrochloride (EDC) and N-hydroxysuccinimide (NHS) according to the supplier's instructions. Human NGF was diluted into 10 mM sodium acetate pH 4.0 and injected over the activated chip at a concentration of 0.005 mg/mL. Using variable flow time across the individual chip channels, two ranges of antigen density were achieved: 100-200 response units (RU) for detailed kinetic studies and 500-600 RU for screening assays. The chip was blocked with ethanolamine. […] HBS-EP buffer (0.01M HEPES, pH 7.4, 0.15 NaCl, 3 mM EDTA, 0.005% Surfactant […]) was used as running buffer for all the BIAcore assays.
A screening BIAcore assay was optimized to determine the affinity of Fab clones from libraries. Supernatants of small culture lysates were injected at 50 μl/min for 2 min. Dissociation times of 10 to 15 minutes were used for determination of a single exponential dissociation rate (koff) using BIAevaluation software. […] Clones showing improved (slower) koff values were expressed at large scale and full kinetic parameters, kon and koff, were determined on purified protein. The assay was capable of detecting differences in affinity that were approximately 2-fold or larger.
For affinity screening experiments, each library was further paired with the corresponding CDR-grafted light or heavy chain (for example, the H1/H2 library was paired with CDR-grafted light chain), the antibody was expressed, and affinity to human NGF of the individual clones was screened using the BIACORE surface plasmon resonance (SPR) system (BIAcore, Inc. Piscataway, N.J.) according to the manufacturer's instructions and as described above. koff, kon and KD were determined. Antibody clones were ranked based on koff rates, since generally most variation in affinity is seen in koff rates, and further because koff rates are independent of antibody concentration.
20-80 clones from each small library were screened using BIAcore analysis as described herein. Samples were simultaneously analyzed by BIAcore for binding affinity to NGF in one channel of the BIAcore chip and for presence of Fab by binding to a penta-histag antibody in another channel of the sensor chip, to detect the his tag at the C terminus of the heavy chain. Clones that expressed protein were classified as having the same affinity, worse affinity, better affinity or no binding, using koff to classify: The results of this analysis are shown in Table 5.
Target sequence in this assay (P01138 122-241): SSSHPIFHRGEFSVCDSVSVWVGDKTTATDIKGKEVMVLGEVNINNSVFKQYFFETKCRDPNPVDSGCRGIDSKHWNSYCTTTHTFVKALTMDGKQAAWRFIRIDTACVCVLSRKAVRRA
Molecule B1 has a koff of 0.0016 s⁻¹.
For B2, the koff was 0.002 s⁻¹.
Work on B3 yielded a koff of 0.0027 s⁻¹.
Work on B4 yielded a koff of 0.0014 s⁻¹.
With B5 the koff was 0.00122 s⁻¹.
In the case of B6, the koff is reported as 0.0015 s⁻¹.
B7 was tested, and the koff was 0.001 s⁻¹.
Work on B8 yielded a koff of 0.0014 s⁻¹.
In the case of B9, the koff is reported as 0.0015 s⁻¹.
With B10 the koff was 0.0016 s⁻¹.
In the case of B11, the koff is reported as 0.0017 s⁻¹.
B12 showed a koff of 0.0017 s⁻¹.

These molecules were tested against T1, human NGF (assay: cell-based or functional assay). Settings: not given.
Target sequence in this assay (P01138 122-241 limits assumed): as the sequence (P01138 122-241) above
For mouse antibody 911 (Fab), the IC50, human NGF-dependent survival of mouse E13.5 trigeminal neurons, 1.5 pM NGF was 63.5 pM and the IC50, human NGF-dependent survival of mouse E13.5 trigeminal neurons, 15 pM NGF was 322 pM.

The molecules below were run against rat NGF (rat) (UniProt P25427) (assay: cell-based or functional assay). Settings: not given.
rat NGF (rat), sequence (P25427 122-241 limits assumed): as the sequence (P01138 122-241) above, with S3T, I6V, R9M, M37T, D60A, D65E, M92T, G94D, V117A, A120G counted along it
For mouse antibody 911 (Fab), the IC50, rat NGF-dependent survival of mouse E13.5 trigeminal neurons, 1.5 pM NGF was 34.6 pM and the IC50, rat NGF-dependent survival of mouse E13.5 trigeminal neurons, 15 pM NGF was 161 pM.
